Results as given in the DeepSol protein solubility set.

Assay: soluble on expression in E. coli; label from the status in PepcDB or PDB records

| Sequence | soluble on expression in E. coli |
| --- | --- |
| MLRRCSVLLNDPPLVSGGPVVGLMRDTGTRTTIRPSIMDAQIAQSALEVKMSSLLAREMQAEKMEAEREPPLKRKWVKAPVSQLSTSLSRRDWFRLMSFNMMTDAWGPGHTTPVEAVRVRVPEFTRNPECDDPNACCDYDPSIDKEFPPFLTPEHRRKHLVELLRCYDPDIACLNEVKRTFFNTELWRYVRFLGYGTLYQSSRGAQVRALRKGDNAAAPSNQGKIAEEEDIGNVLLFHKGRFFPLMMPGRDIGQRFHFAHFVGMRDKVTNMTLYVACVQLTAGATAEAADVRLHEARQVLTILDALGRNDADRSHQSHIVCGDLNNQADDEPCVELLRDRFFSTHDLVGGPRWTAWHYRDDARAAAYDTYYTKNVEQAHRSDKAYQAEEEIHRFRRKDAGGYHGVFSKVRLVRDEIAARAHKKQQQQLTTPKTAPEVATPPPADTVAAAPAPSPASAPAPSDTAVRVDQLALLKESRKAKGITYNTQDFIFYDPSTLALHQVLDVPEDEEVNEAQLFPNHKLPSHHLPLFIDISWIDSFPDVAARTLKE | not soluble |
| MTNDFATVLRQFVEGLDLGIKPRLDYLTRQEDLAIYPMPGGKVNNEYMDGTREISLPFEIAIKTKNQELASTVMWTINSALSNFDLKLPSLNHSYTFISLDVEKPFLNDLSDQGFYIYVLDITAHLEIEGNN | soluble |
| MGSDKIHHHHHHMRLILYLGKGGVGKTTTSAATAVRAAELGYRTLVVSTDVAHSLADALDTPLGSLPTQITERLWGQEINVLDEVREHWGELRVYLSNLLRRRGVDEVAAEELAIIPGMEEVVSLLHIRRQAREGNFDVVIVDAAPTGETVRLLTMPETFQWYAARVMDWEPTTLKVARPLVKQLVPATDVFAKLERLTKGVEALRATLTDPQISSYRLVVNPERMVIKEAQRASTYLALFGYPVDGVVLNRVLPVDQVEGAFMQELARIQQGYRQMVYDLFRPLPIWESPYFARDLAGIEDLAMVGRRLFGDDDPVKVHFIGKTQEIVKQGDEYVLRLPLPHVEIGKVSMTKRGDELFIEIGNFRRDMLLPTTLAERPARRAYFRNGVLEVFFGPPETLSLKTDAQEESTPS | not soluble |
| MGSDKIHHHHHHMKKVLVIRNDKLGDFMLAWPAFAMLKASDPSLKLTALVPTYTAEIARACPYLDEVIIDVPKGDKAAFQRLVNDIKAQRFDAMISFFSNTHNAKLAWKCRIPYRLAPATKWVQFFYNHRLVQRRSQSAKPEFAYNLDLARRFLQDQSIAVVEPRPPYLSFPKSAVDFQREFLCLQLNVDSSKKWIFVHSGSGGSANNLSLAQYAALIRGLLAQFDAYVILTAGPNESEKAHELAGLVQDARVVVYDKNKGLVDFAQSLACADLFIAGSTGPLHLSGALNVPTIGFYPSRRSATPLRWQPINDEAKHLAFCPSNDKASQTDLSKISIEEKLAKMIRFITKVWHAADK | not soluble |
| AHHHHHHGSIEVRFHGRGGQGAVTAANILAEAAFLEGKYVQAFPFFGVERRGAPVTAFTRIDNKPIRIKTQIYEPDVVVVLDPSLLDAVDVTAGLKDEGIVIVNTEKSKEEVLEKLKKKPKKLAIVDATTIALEILGLPITNTAILGAVAKATGLVKIESIEEAIKDTFSGELGEKNARAAREAYEKTEVFEL | soluble |
| MAHHHHHHMRSNRNGSHSFFFLSVYSWFIFSPFEVFDDEYFLVDEKEKYVFLFVFVFMEEKRICVVVFPVPKVHAAAEIVIVDAVLFPHAADTDELKLCHF | not soluble |
| MGSDKIHHHHHHMKYQQKLRNMIDFIGKHLDEELSLESLSEIFCISKFHFHRLFTAFTGLSLQQYIKWLRLKRAAHQLIVDKDQSVINIAINAGFESHEAFSRAFKKACGFSPSQFRQGFGRSYWEQPPYCLPGQSRTDMKVDIKSIDKIRLAVIEHKGDPKLLGESINKLVSWAKSQSINLKPRAGEAFALAYDDPKTTPPSDFRIDLGIKVPENLKLDGVIEKFLPSGRYAVTVHKGSRNNIGDVVYYLYRDWLPNTSEQLGDLPCIFCYYNFDHEVAETELLTECWLLLK | not soluble |
| MGSDKIHHHHHHMKILILRFSSIGDIVLTTPVIRCLKKQIPNAEIHFATKASFKSILENNPYIDKLHLLESSTASFIKQLKAERFDVVIDLHSNIRTKRIKWALKAKSFTFDKLNIRKWFYVNWKWKTMPAIHIVDRYLDTVKHLGVKNDNEGLDYFIPEKDIISRDSLPQKYAAGYVAIAIGAQHATKRLPEAKLIELIGKISHPIILLGGKDDTATAARLVAYFPDTKNILNACGTYNLNQSASIVHQCMYLYTHDTGLMHIGAALQKRIISIWGNTTPELGMYAYKTEHVNWQKEDLYCRPCSKIGYNSCPKKHFRCMNEQVLPVHEIESRWN | not soluble |
| MGSDKIHHHHHHMRISLGPLVYCWQKQQVMAFYQQVAASQIPLVYLGEAVCSRRRELKWGDYFELARMLKQAGKEVVISTLALIEASSEYTELKRQVDNGEFMIEANDMAAVYLAKEHKLPFVCGASINNYNRASLDILHGFGMQRFVMPVELSKAWLQHVIQNKPAFEVEVFGHGYLPLAHSARCFTARHKQLTKDSCETICRQYSKGLLAQTQEMQPLLRLNGIQTQSAACLDLSSEIAAMNTMGVDVFRVSPSGTESIVRAESLIEALNMPEMALNAPIKGEQCDGYWFGEAGLTIHHAT | not soluble |
| MTKKDKKEVKVQTVTTEDGETVKVFEDLQGFETFIANETEDDDFDHLHCKLNYYPPFVLHESHEDPEKISDAANSHSKKFVRHLHQHIEKHLLKDIKQAVRKPELKFHEKSKEETFDKITWHYGEETEYHGRPFKIDVQVVCTHEDAMVFVDYKTHPVGAN | soluble |
| LVPRGSDSSRRQYQEKYKQVEQYMSFHKLPADFRQKIHDYYEHRYQGKMFDEDSILGELNGPLREEIVNFNNRKLVASMPLFANADPNFVTAMLTKLKFEVFQPGDYIIREGTIGKKMYFIQHGVVSVLTKGNKEMKLSDGSYFGEISLLTRGRRTASVRADTYSRLYSLSVDNFNEVLEEYPMMRRAFETVAIDRLDRIGKKN | soluble |
| MAHHHHHHMKIHIFLIATIYVLFSEKLIKWTTASTTQGGDTDTHPGTPPGEGSDVSQGAGQDASQGAGQDANPDPTLPKPPSPPADDTKDTGSQGDADSSSSKIEIPPLVKPENHKTIVSAMLKNYKGVKVTGTCGADFGLFLVPHIYVHVKSEDTEIELSSELAPPEMQTKFDKTQLKKFCVKDDTKKFDFIAYIYKDILVFKWKVYEEGLSKEQDVDEMKYLLPNLKQPITSIQVHSWTGTKESYILESKDYVLGEGMPEKCDAIATDCFLSGFTDIGKCFQCKLLMQEKNINDSCFKYVSSNQKELIKKQLKITAQDDEESSEYHLSESIKNLLKNIYKKNNDDNKKKELLHFENVNSALKSELLNYCNLLKEVNMNGVLKDHQLGNVQDVFNNLTKLLEEHKEENDNVLYHKMKNEALCLKNVNDWMKNKTGLLLPQLSYDLTYKNNNFTEFTQNKSYTSQNIVDKLYCNHEYCNRLKDHNNCISKINVEDQKNCALSWAFASKYHLETIKCMKGYEPLNASVLYVTNCLKNKNKDVCTEGSNPLVFLETIEEKGFLPTESNYPYDQSKVGDICPQLQNDWDNVFENTKVLDYNNGPFSVGTKGYIAYESEAFQKDMHSFVKLVKDEIMNKGSVIAYVKAENVLGYELNGKKVQNLCGDKTPDHVVNIVGYGNYINNKGEKKSYWIVRNSWGKYWGDDGYFKVDMYGPSTCEDNFIHTVVVFNVQVPINEKFDKKEHDIYNYYLKTSPEFYHNLYYKTFNS | not soluble |
| MKPHFRNTVERMYRDTFSYNFYNRPILSRRNTVWLCYEVKTKGPSRPPLDAKIFRGQVYSELKYHPEMRFFHWFSKWRKLHRDQEYEVTWYISWSPCTKCTRDMATFLAEDPKVTLTIFVARLYYFWDPDYQEALRSLCQKRDGPRATMKIMNYDEFQHCWSKFVYSQRELFEPWNNLPKYYILLHIMLGEILRHSMDPPTFTFNFNNEPWVRGRHETYLCYEVERMHNDTWVLLNQRRGFLCNQAPHKHGFLEGRHAELCFLDVIPFWKLDLDQDYRVTCFTSWSPCFSCAQEMAKFISKNKHVSLCIFTARIYDDQGRCQEGLRTLAEAGAKISIMTYSEFKHCWDTFVDHQGCPFQPWDGLDEHSQDLSGRLRAILQNQEN | soluble |
| MSLSWEYEYYPHSLFCHHKEREGMHYIEGAYWSAEPDLPYLHKRKILMLVEDVWLLVDDIRCQGQHEALTQFILDKDVTYQDGKINQLRLWSEVDFDLEDTIISPKYNELERSSKLTKRQFFENQMLDYTIIAHESFEIIRHSVYQTDDREVENALAFEVKNDETDKLILLLSEDIRVGEKLCLVDGTKMRGKCLVYDKINERMIRLQCEGHHHHHH | soluble |
